# Reference: IntAct's records for PubMed 25910212
# B1: Pyridoxine-5'-phosphate oxidase (Homo sapiens), Q9NVS9 (parent)
# chain: MTCWLRGVTATFGRPAEWPGYLSHLCGRSAAMDLGPMRKSYRGDREAFEETHLTSLDPVKQFAAWFEEAVQCPDIGEANAMCLATCTRDGKPSARMLLLKGFGKDGFRFFTNFESRKGKELDSNPFASLVFYWEPLNRQVRVEGPVKKLPEEEAECYFHSRPKSSQIGAVVSHQSSVIPDREYLRKKNEELEQLYQDQEVPKPKSWGGYVLYPQVMEFWQGQTNRLHDRIVFRRGLPTGDSPLGPMTHRGEEDWLYERLAP
# B2: Acetylcholine receptor subunit gamma (Homo sapiens), P07510-2 (parent)
# chain: MHGGQGPLLLLLLLAVCLGAQGRNQEERLLADLMQNYDPNLRPAERDSDVVNVSLKLTLTNLISLNEREEALTTNVWIEMQWCDYRLRWDPRDYEGLWVLRVPSTMVWRPDIVLENKSQTYSTNEIDLQLSQEDGQTIEWIFIDPEAFTENGEWAIQHRPAKMLLDPAAPAQEAGHQKVVFYLLIQRKPLFYVINIIAPCVLISSVAILIHFLPAKAGGQKCTVAINVLLAQTVFLFLVAKKVPETSQAVPLISKYLTFLLVVTILIVVNAVVVLNVSLRSPHTHSMARGVRKVFLRLLPQLLRMHVRPLAPAAVQDTQSRLQNGSSGWSITTGEEVALCLPRSELLFQQWQRQGLVAAALEKLEKGPELGLSQFCGSLKQAAPAIQACVEACNLIACARHQQSHFDNGNEEWFLVGRVLDRVCFLAMLSLFICGTAGIFLMAHYNRVPALPFPGDPRPYLPSPD
# partner: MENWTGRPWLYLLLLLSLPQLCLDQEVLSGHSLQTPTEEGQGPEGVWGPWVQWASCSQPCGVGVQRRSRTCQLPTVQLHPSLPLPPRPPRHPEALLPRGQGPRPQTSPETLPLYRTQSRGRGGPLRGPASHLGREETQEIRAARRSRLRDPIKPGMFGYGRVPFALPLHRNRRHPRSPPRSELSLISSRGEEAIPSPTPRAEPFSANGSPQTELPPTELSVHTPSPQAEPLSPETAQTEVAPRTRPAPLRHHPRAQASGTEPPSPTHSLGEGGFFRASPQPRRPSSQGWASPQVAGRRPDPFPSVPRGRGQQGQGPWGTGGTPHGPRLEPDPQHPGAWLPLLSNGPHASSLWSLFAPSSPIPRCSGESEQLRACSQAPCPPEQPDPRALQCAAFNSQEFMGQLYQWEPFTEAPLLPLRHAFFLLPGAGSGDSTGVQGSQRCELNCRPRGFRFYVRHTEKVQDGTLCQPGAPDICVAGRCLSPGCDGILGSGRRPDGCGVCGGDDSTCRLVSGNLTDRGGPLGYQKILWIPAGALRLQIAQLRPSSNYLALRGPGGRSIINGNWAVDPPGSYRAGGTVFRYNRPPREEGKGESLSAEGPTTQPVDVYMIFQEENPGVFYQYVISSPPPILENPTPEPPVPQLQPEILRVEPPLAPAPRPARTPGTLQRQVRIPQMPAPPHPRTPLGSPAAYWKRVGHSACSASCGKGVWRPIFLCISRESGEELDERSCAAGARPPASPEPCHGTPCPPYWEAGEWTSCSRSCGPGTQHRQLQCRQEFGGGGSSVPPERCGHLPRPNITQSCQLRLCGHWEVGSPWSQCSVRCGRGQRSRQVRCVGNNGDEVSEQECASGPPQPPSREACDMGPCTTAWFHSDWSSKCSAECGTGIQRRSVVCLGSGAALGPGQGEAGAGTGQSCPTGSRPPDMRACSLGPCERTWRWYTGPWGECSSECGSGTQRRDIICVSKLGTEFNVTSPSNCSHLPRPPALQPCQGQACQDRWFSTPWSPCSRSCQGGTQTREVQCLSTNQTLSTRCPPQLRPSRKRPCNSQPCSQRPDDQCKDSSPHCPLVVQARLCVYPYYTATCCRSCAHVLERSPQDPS
# B3: ATP synthase mitochondrial F1 complex assembly factor 2 (Homo sapiens), Q8N5M1 (parent)
# chain: MWRSCLRLRDGGRRLLNRPAGGPSASMSPGPTIPSPARAYAPPTERKRFYQNVSITQGEGGFEINLDHRKLKTPQAKLFTVPSEALAIAVATEWDSQQDTIKYYTMHLTTLCNTSLDNPTQRNKDQLIRAAVKFLDTDTICYRVEEPETLVELQRNEWDPIIEWAEKRYGVEISSSTSIMGPSIPAKTREVLVSHLASYNTWALQGIEFVAAQLKSMVLTLGLIDLRLTVEQAVLLSRLEEEYQIQKWGNIEWAHDYELQELRARTAAGTLFIHLCSESTTVKHKLLKE
# partner: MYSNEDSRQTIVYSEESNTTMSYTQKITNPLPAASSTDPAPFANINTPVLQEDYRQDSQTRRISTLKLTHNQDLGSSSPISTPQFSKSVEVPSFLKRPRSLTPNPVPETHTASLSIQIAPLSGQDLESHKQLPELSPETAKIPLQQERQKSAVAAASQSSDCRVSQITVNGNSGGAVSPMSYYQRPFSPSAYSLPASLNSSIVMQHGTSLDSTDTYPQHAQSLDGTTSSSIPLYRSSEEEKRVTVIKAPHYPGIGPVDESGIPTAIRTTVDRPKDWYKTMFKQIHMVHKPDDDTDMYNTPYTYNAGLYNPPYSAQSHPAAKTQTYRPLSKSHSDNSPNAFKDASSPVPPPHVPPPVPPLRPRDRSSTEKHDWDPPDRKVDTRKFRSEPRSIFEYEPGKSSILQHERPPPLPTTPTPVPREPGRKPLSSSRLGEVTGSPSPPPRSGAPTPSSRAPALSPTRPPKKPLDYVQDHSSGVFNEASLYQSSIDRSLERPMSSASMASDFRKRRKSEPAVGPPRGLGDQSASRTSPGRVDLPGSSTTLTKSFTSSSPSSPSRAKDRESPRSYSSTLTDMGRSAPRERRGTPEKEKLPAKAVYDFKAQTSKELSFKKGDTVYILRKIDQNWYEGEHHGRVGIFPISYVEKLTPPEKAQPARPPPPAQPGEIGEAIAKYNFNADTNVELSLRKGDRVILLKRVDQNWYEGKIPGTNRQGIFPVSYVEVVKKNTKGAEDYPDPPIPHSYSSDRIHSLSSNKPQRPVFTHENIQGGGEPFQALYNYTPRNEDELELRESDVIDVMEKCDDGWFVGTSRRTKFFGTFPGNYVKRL
# B4: SH2 domain-containing protein 1A (Homo sapiens), O60880 (parent)
# chain: MDAVAVYHGKISRETGEKLLLATGLDGSYLLRDSESVPGVYCLCVLYHGYIYTYRVSQTETGSWSAETAPGVHKRYFRKIKNLISAFQKPDQGIVIPLQYPVEKKSSARSTQGTTGIREDPDVCLKAP
# partner: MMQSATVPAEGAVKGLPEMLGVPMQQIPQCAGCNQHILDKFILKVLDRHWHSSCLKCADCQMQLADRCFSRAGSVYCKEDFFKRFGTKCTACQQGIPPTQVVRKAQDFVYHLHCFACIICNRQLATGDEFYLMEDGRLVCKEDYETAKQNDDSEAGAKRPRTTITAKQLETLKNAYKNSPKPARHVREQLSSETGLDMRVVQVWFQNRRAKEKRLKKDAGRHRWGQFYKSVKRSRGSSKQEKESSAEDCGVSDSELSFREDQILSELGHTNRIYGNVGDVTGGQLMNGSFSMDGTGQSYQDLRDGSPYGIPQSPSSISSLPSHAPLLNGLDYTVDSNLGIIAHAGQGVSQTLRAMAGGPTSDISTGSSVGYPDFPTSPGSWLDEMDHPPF
# B5: U4/U6 small nuclear ribonucleoprotein Prp3 (Homo sapiens), O43395 (parent)
# chain: MALSKRELDELKPWIEKTVKRVLGFSEPTVVTAALNCVGKGMDKKKAADHLKPFLDDSTLRFVDKLFEAVEEGRSSRHSKSSSDRSRKRELKEVFGDDSEISKESSGVKKRRIPRFEEVEEEPEVIPGPPSESPGMLTKLQIKQMMEAATRQIEERKKQLSFISPPTPQPKTPSSSQPERLPIGNTIQPSQAATFMNDAIEKARKAAELQARIQAQLALKPGLIGNANMVGLANLHAMGIAPPKVELKDQTKPTPLILDEQGRTVDATGKEIELTHRMPTLKANIRAVKREQFKQQLKEKPSEDMESNTFFDPRVSIAPSQRQRRTFKFHDKGKFEKIAQRLRTKAQLEKLQAEISQAARKTGIHTSTRLALIAPKKELKEGDIPEIEWWDSYIIPNGFDLTEENPKREDYFGITNLVEHPAQLNPPVDNDTPVTLGVYLTKKEQKKLRRQTRREAQKELQEKVRLGLMPPPEPKVRISNLMRVLGTEAVQDPTKVEAHVRAQMAKRQKAHEEANAARKLTAEQRKVKKIKKLKEDISQGVHISVYRVRNLSNPAKKFKIEANAGQLYLTGVVVLHKDVNVVVVEGGPKAQKKFKRLMLHRIKWDEQTSNTKGDDDEESDEEAVKKTNKCVLVWEGTAKDRSFGEMKFKQCPTENMAREHFKKHGAEHYWDLALSESVLESTD
# partner: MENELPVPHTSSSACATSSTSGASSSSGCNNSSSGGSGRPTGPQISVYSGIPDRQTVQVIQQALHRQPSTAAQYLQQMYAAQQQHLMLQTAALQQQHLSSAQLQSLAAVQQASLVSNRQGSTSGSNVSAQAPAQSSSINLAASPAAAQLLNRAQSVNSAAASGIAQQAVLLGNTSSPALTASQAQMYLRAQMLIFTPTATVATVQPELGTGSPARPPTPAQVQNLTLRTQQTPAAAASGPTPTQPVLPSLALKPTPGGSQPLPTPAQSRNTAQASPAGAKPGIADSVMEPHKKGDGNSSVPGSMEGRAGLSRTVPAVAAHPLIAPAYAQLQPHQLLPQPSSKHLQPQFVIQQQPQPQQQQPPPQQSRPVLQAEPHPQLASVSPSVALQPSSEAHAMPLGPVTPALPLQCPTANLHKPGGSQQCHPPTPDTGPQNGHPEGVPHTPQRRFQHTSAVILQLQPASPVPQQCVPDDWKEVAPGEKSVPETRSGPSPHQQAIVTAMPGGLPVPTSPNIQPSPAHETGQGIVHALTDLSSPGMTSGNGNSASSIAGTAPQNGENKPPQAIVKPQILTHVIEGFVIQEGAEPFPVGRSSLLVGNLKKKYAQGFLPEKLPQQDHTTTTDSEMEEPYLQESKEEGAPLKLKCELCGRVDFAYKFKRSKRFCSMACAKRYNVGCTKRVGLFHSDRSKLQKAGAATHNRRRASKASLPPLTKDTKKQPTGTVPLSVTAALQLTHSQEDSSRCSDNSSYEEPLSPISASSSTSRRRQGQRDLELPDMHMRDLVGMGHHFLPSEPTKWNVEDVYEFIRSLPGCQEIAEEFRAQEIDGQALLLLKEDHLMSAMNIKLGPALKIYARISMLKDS
# B6: Progranulin (Homo sapiens), P28799 (parent)
# chain: MWTLVSWVALTAGLVAGTRCPDGQFCPVACCLDPGGASYSCCRPLLDKWPTTLSRHLGGPCQVDAHCSAGHSCIFTVSGTSSCCPFPEAVACGDGHHCCPRGFHCSADGRSCFQRSGNNSVGAIQCPDSQFECPDFSTCCVMVDGSWGCCPMPQASCCEDRVHCCPHGAFCDLVHTRCITPTGTHPLAKKLPAQRTNRAVALSSSVMCPDARSRCPDGSTCCELPSGKYGCCPMPNATCCSDHLHCCPQDTVCDLIQSKCLSKENATTDLLTKLPAHTVGDVKCDMEVSCPDGYTCCRLQSGAWGCCPFTQAVCCEDHIHCCPAGFTCDTQKGTCEQGPHQVPWMEKAPAHLSLPDPQALKRDVPCDNVSSCPSSDTCCQLTSGEWGCCPIPEAVCCSDHQHCCPQGYTCVAEGQCQRGSEIVAGLEKMPARRASLSHPRDIGCDQHTSCPVGQTCCPSLGGSWACCQLPHAVCCEDRQHCCPAGYTCNVKARSCEKEVVSAQPATFLARSPHVGVKDVECGEGHFCHDNQTCCRDNRQGWACCPYRQGVCCADRRHCCPAGFRCAARGTKCLRREAPRWDAPLRDPALRQLL
# partner: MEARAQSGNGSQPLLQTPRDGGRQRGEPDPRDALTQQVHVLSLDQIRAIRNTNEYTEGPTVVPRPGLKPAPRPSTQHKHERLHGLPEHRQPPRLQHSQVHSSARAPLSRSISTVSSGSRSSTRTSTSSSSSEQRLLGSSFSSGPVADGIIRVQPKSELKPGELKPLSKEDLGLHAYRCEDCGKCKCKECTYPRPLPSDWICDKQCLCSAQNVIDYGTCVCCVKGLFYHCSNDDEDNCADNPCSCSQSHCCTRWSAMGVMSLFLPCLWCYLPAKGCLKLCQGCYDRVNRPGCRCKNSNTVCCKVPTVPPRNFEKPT
# Variants of: B1
# Conditions: with AGTRAP
row,effect of a mutation on the interaction,Variant
1,with no effect,R116Q
2,disrupting interaction strength,R95H
3,disrupting interaction strength,R95C
4,disrupting interaction strength,R229W

# Variants of: B1
# Conditions: with CMTM5, Q96DZ9-2
# CMTM5, Q96DZ9-2, sequence (Q96DZ9 other isoform, or with tags, fused parts or gaps): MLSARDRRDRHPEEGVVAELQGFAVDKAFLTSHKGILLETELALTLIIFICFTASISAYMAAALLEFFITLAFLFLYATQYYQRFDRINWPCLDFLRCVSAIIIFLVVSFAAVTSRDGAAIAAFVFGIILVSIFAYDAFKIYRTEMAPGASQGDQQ
row,effect of a mutation on the interaction,Variant
1,with no effect,R116Q
2,disrupting interaction strength,R95H
3,disrupting interaction strength,R95C
4,disrupting interaction strength,R229W

# Variants of: B2
# Conditions: with ADAMTSL4, Q6UY14-3
row,effect of a mutation on the interaction,Variant
1,disrupting interaction strength,R187C
2,disrupting interaction strength,R86C
3,disrupting interaction strength,V107G

# Variants of: B3
# Conditions: with SORBS2, O94875-10
row,effect of a mutation on the interaction,Variant
1,disrupting interaction strength,W94R

# Variants of: B4
# Conditions: with lhx4_human LHX4, Q969G2
row,effect of a mutation on the interaction,Variant
1,with no effect,P101L
2,with no effect,G93D
3,with no effect,R32T

# Variants of: B5
# Conditions: with PHC2, Q8IXK0-5
row,effect of a mutation on the interaction,Variant
1,disrupting interaction strength,A489D
2,disrupting interaction strength,P493S
3,disrupting interaction strength,T494M

# Variants of: B6
# Conditions: with spy2_human SPRY2, O43597
row,effect of a mutation on the interaction,Variant
1,with no effect,P248L
2,disrupting interaction strength,A9D
